The source of these data is the RNAGym collection of RNA variant scans (doi:10.7554/elife.80360).

The labels stand for the following.
B1: HDV Ribozyme (parent)
chain: GGCCGGCAUGGUCCCAGCCUCCUCGCUGGCGCCGGCUGGGCAACAUUCCGAGGGGACCGUCCCCUCGGUAAUGGCGAAUGGGACCCA

The variants in this series derive from B1. As to the kind of experiment: self-cleavage, relative activity (ratio to wild type); higher = more cleavage; co-transcriptional.
Turning to U23G U69A, the self-cleavage was 0.499.

On to U23G U69G, for which the self-cleavage stood at 0.431. On to C24G A78C, for which the self-cleavage was 0.0241.

Turning to C24U G31C, the self-cleavage turned out to be 0.0615. As to C24U G31A, the self-cleavage was found to be 0.169. As to C24U G38U, the self-cleavage is 0.115. With C24U G38C, the self-cleavage was 0.0554. For the variant C24A G68C, the self-cleavage is 0.628.

Take C24G U60G: the self-cleavage turned out to be 0.0755. The result for G25A A43C reads 0; that for G25A A43G, 0.35; that for C24A C63U, 0.692.

Take C24A C63A: the self-cleavage was 0.882. The result for C24A C63G reads 0.723. C24A C49A: the self-cleavage came out at 0.65. Consider C24G A56U, for which the self-cleavage was 0.0831. Consider C24G C62U, for which the self-cleavage was determined as 0.142. Take C24G C62G: the self-cleavage stood at 0.0415.

Take C24U C63U: the self-cleavage was found to be 0.726. C24U C63G: the self-cleavage was 0.76. C24U G40C: the self-cleavage was found to be 0.138. Consider C24A A56G, for which the self-cleavage was 0.404. Next, C24G C26U: 0.514; C24G C26G: 0.277.

Turning to C24U U69C, the self-cleavage amounted to 0.831.

As for C24U U69A, the self-cleavage was determined as 0.617. The result for C24U U69G reads 0.764; that for C24G U79A, 0.0898; that for C24A A70U, 0.612.

As to C24A A70C, the self-cleavage turned out to be 0.852. Next, C24U G73A: 0.188.

As to C24A A87C, the self-cleavage turned out to be 0.645. Turning to C24A G76C, the self-cleavage worked out at 0.936.

Turning to C24A G76A, the self-cleavage worked out at 0.769. The result for C24A G76U reads 0.842. Take C24A C84A: the self-cleavage was 0.787. Consider C24G A70C, for which the self-cleavage came out at 0.0978.

On to C24G A70U, for which the self-cleavage was 0.0627. Next, C24G U47G: 0.0978; C24G U47A: 0.106.

C24U G54U: the self-cleavage was found to be 0.618. For the variant C24U G54C, the self-cleavage worked out at 0.748. The result for C24U G54A reads 0.779; that for C24A C33G, 0.142. Consider C24A C33U, for which the self-cleavage turned out to be 0.363. Take C24A C33A: the self-cleavage was 0.0811.

Take C24U A77C: the self-cleavage was found to be 0.119.

As to C24G G76C, the self-cleavage stood at 0.219. The result for C24A G50A reads 0.688. Regarding C24A G50U, the self-cleavage was 0.641. The result for C24A C30G reads 0.089; that for C24A C30U, 0.0723. The result for C24G C32G reads 0.0504; that for C24G C32U, 0.0773. Regarding C24G C32A, the self-cleavage came to 0. Turning to C24U A56G, the self-cleavage is 0.77. For the variant C24A C58U, the self-cleavage was 0.742.

Turning to C24A C58A, the self-cleavage was found to be 0.863. Turning to C24A C58G, the self-cleavage came to 0.855. Consider C24U A71G, for which the self-cleavage came out at 0.648.

With C24U A71U, the self-cleavage came out at 0.587. As to C24A G54U, the self-cleavage was 0.736. Next, G25A A56U: 0.111.

Take G25A A56G: the self-cleavage amounted to 0.227. On to G25A A56C, for which the self-cleavage was 0.325.

Regarding U23G U27A, the self-cleavage came out at 0.594. For the variant U23G U27C, the self-cleavage was 0.511. Take C24U A45U: the self-cleavage turned out to be 0.489. C24U A45C: the self-cleavage was 0.26. As to C24U C66G, the self-cleavage is 0.796.

As to C24U C66U, the self-cleavage came out at 0.629.

For C24G G74U, the self-cleavage was 0.0554. Regarding C24A U60G, the self-cleavage was 0.678. As for C24A U60C, the self-cleavage was 0.702. For the variant C24G C33G, the self-cleavage stood at 0.0475. Take C24G C33A: the self-cleavage was determined as 0.244. Regarding C24U C26A, the self-cleavage was 0.955. Consider C24G G25U, for which the self-cleavage is 0.0773.

Consider G25A, for which the self-cleavage was 0.24. For C24A C48U, the self-cleavage was found to be 0.799.

Take C24A C48G: the self-cleavage came to 0.47. The result for C24G C84U reads 0.12; that for C24U C32U, 0.422.

Take C24U C32A: the self-cleavage was 0.0287.

As for C24U G59U, the self-cleavage came out at 0.736. Consider C24U G59A, for which the self-cleavage was 0.623. On to U23G G67A, for which the self-cleavage is 0.628. Turning to C24U C62U, the self-cleavage worked out at 0.763. As to C24U C62G, the self-cleavage was found to be 0.341.

Regarding C24U C62A, the self-cleavage turned out to be 0.471. As to C24A G35U, the self-cleavage was 0.298.

In the case of C24U U46C, the self-cleavage was found to be 0.268. Consider C24U U46G, for which the self-cleavage turned out to be 0.415. Consider C24U U46A, for which the self-cleavage was 0.53. In the case of C24U G80A, the self-cleavage was 0.0525. The result for C24U G80U reads 0.102; that for C24U U79G, 0.244. As to U23G U37A, the self-cleavage stood at 0.0678.

Consider C24G G29C, for which the self-cleavage came out at 0.

As for C24G G29U, the self-cleavage was 0.0692. Consider C24G G29A, for which the self-cleavage was determined as 0.188. Turning to C24A G52C, the self-cleavage was found to be 0.803. C24A G52A: the self-cleavage was determined as 1.1. Take C24U G53U: the self-cleavage is 0.802. Regarding C24U G53A, the self-cleavage was 0.87. Next, C24U U47A: 0.658.

For C24U U47G, the self-cleavage is 0.266. As for C24G A45C, the self-cleavage turned out to be 0.0302. Next, C24G A45G: 0.222; C24U C64A: 0.848; C24U C64U: 0.511. Next, C24A C41U: 0.354; C24A C41A: 0.369. For the variant C24G G40C, the self-cleavage was found to be 0.0222. The result for C24G G40A reads 0.112. C24A U46A: the self-cleavage worked out at 0.213.

Turning to C24A G73A, the self-cleavage is 0.234. Next, C24A G73C: 0.211; C24A G73U: 0.288; C24U C86G: 0.577. As to C24U C86A, the self-cleavage amounted to 0.808. Consider C24U C86U, for which the self-cleavage was found to be 0.69. As for C24A U72C, the self-cleavage was 0.253. The result for C24A U72G reads 0.364; that for C24A C86A, 0.607; that for C24A C86G, 0.724.

U23G G81A: the self-cleavage stood at 0.0426. With U23G G81U, the self-cleavage was 0.117. On to U23G G81C, for which the self-cleavage came to 0.166. Regarding C24U G28U, the self-cleavage came to 0.119.

In the case of C24A A78G, the self-cleavage came to 0.492. In the case of C24A G25A, the self-cleavage worked out at 0.102. In the case of C24A C32U, the self-cleavage stood at 0.619. As to C24A C32G, the self-cleavage was determined as 0.213.

For the variant U23G G76U, the self-cleavage turned out to be 1.05. As to C24A G59U, the self-cleavage turned out to be 0.783. As for U23G G82C, the self-cleavage came out at 0.222. Next, U23G U46C: 0.462. In the case of U23G U46A, the self-cleavage is 0.712. C24A G80C: the self-cleavage worked out at 0.262.

With C24A G80A, the self-cleavage was 0.131.

As for C24U C44A, the self-cleavage worked out at 0.277. Next, C24G C36U: 0.0627.

As for C24A G39A, the self-cleavage was 0.0779. Next, C24A G39C: 0.0692. For U23G U60G, the self-cleavage turned out to be 0.665.

Consider C24A A42G, for which the self-cleavage was 0.166. On to C24A A42U, for which the self-cleavage came out at 0.0639.

As to C24G U37A, the self-cleavage was 0.0674.

In the case of C24G U37G, the self-cleavage was determined as 0. On to C24G A51G, for which the self-cleavage came to 0.111.

Regarding C24G A51U, the self-cleavage came out at 0.237. Take C24U G55U: the self-cleavage was found to be 0.698. With C24U G55A, the self-cleavage came out at 0.869.

For the variant C24G C61U, the self-cleavage is 0.166. For the variant C24G G73A, the self-cleavage was found to be 0.151.

In the case of C24G G73U, the self-cleavage was found to be 0.0841.

As to G25A A45G, the self-cleavage came out at 0.332. Turning to C24G U65A, the self-cleavage amounted to 0.208. Next, C24G U65G: 0.233; C24A G67U: 0.831; C24A G67A: 0.802. The result for C24U A78G reads 0.397; that for C24G A43U, 0.0237.

As to C24G A43G, the self-cleavage came to 0.0354. With C24G A43C, the self-cleavage worked out at 0.0811. Regarding C24U C30A, the self-cleavage was 0.0482.
